According to paper PMC6220480:

Target: NKG2D-based chimeric antigen receptor of CYAD-01 cells (full length human NKG2D fused to the CD3zeta signalling domain) (UniProt P26718)

MICB (major histocompatibility complex class I chain-related B), recombinant (from UniProt Q29980 23-383) (ligand)
cytokine secretion by CYAD-01 cells cultured with plate-bound ligand: > 0.25 µg/mL

MICA (major histocompatibility complex class I chain-related A), recombinant (from UniProt Q29983 24-383) (ligand)
cytokine secretion by CYAD-01 cells cultured with plate-bound ligand: > 0.25 µg/mL

B1: ULBP1 (UL16 binding protein 1), recombinant (ligand)
chain: GWVDTHCLCYDFIITPKSRPEPQWCEVQGLVDERPFLHYDCVNHKAKAFASLGKKVNVTKTWEEQTETLRDVVDFLKGQLLDIQVENLIPIEPLTLQARMSCEHEAHGHGRGSWQFLFNGQKFLLFDSNNRKWTALHPGAKKMTEKWEKNRDVTMFFQKISLGDCKMWLEEFLMYWEQMLDPTKPPSLAPG
cytokine secretion by CYAD-01 cells cultured with plate-bound ligand: > 5 µg/mL

B2: ULBP3 (UL16 binding protein 3), recombinant (ligand)
chain: DAHSLWYNFTIIHLPRHGQQWCEVQSQVDQKNFLSYDCGSDKVLSMGHLEEQLYATDAWGKQLEMLREVGQRLRLELADTELEDFTPSGPLTLQVRMSCECEADGYIRGSWQFSFDGRKFLLFDSNNRKWTVVHAGARRMKEKWEKDSGLTTFFKMVSMRDCKSWLRDFLMHRKKRLEPTAPPTMAPG
cytokine secretion by CYAD-01 cells cultured with plate-bound ligand: > 5 µg/mL

B3: ULBP2 (UL16 binding protein 2), recombinant (ligand)
chain: GRADPHSLCYDITVIPKFRPGPRWCAVQGQVDEKTFLHYDCGNKTVTPVSPLGKKLNVTTAWKAQNPVLREVVDILTEQLRDIQLENYTPKEPLTLQARMSCEQKAEGHSSGSWQFSFDGQIFLLFDSEKRMWTTVHPGARKMKEKWENDKVVAMSFHYFSMGDCIGWLEDFLMGMDSTLEPSAGAPLAMSS
cytokine secretion by CYAD-01 cells cultured with plate-bound ligand: > 5 µg/mL
